{"source": "patent US12599570B2", "about": "“Biodegradable extended release microsphere-hydrogel ocular drug delivery system and method” (priority 2015, dated 2026)", "key": {"[1]": {"experiment": "Release of vancomycin from hydrogel", "format": "physicochemical", "settings": "VAN encapsulated in hydrogel only", "source_text": "A third example is a DDS where only hydrogel is used to release vancomycin (VAN, antibiotics, 1450 Da). VAN was encapsulated in the hydrogel as a short-term release DDS (e.g., for use as a prophylactic treatment before ocular surgery)."}, "[2]": {"experiment": "Bioactivity of vancomycin released from hydrogel", "settings": "throughout release from hydrogel"}, "[3]": {"experiment": "Animal modeling of vancomycin hydrogel DDS (subconjunctival injection)", "format": "in vivo"}, "[4]": {"experiment": "Microsphere diameter by light microscopy and ImageJ", "format": "physicochemical", "settings": "drug-loaded microspheres, Alone", "source_text": "To measure microsphere diameter, microspheres were fabricated as described above with non-radiolabeled drug. A sample was suspended in ddH2O and imaged with a microscope (×20 objective, Carl Zeiss, Germany)."}, "[5]": {"experiment": "Encapsulation efficiency of iodine-125 labelled anti-VEGF by gamma counter", "format": "physicochemical", "description": "(§1) Labeled proteins were lyophilized, weighed, and dissolved in 1× phosphate-buffered saline (PBS, pH 7.4) to create stock solutions of 10 mg/mL for each protein, which were stored at −80° C.\nFor each anti-VEGF agent, encapsulation efficiency (EE) was determined from the radioactivity measured using a gamma counter (Cobra-II Auto-Gamma, Packard Instrument Co., Meriden, CT) before and after microsphere preparation. EE was defined as the percent-drug within the microspheres relative to the theoretical loading amount."}, "[6]": {"experiment": "In vitro release of anti-VEGF from microspheres and microsphere-hydrogel DDS (PBS, 37 C)", "format": "physicochemical", "settings": "for Initial Burst Percent: drug released within first 24 hours; for extension of release by hydrogel: microspheres in hydrogel versus alone; for reduction of initial burst by hydrogel: microspheres in hydrogel versus microspheres alone; for steady release rate: Days 7-196; for duration of release: microspheres suspended in hydrogel", "description": "as §1\nRelease of anti-VEGF agents was determined using a separation method also described in Osswald C. R. et al. Briefly, 15 mg of microspheres and 1 mL of the DDS (15 mg microspheres in 1 mL hydrogel) were suspended in 1.5 mL of 1×PBS to ensure detectable levels of anti-VEGF concentration throughout release. Release profiles were conducted at 37° C. under mild agitation and at predetermined intervals, 1 mL of supernatant was removed after a brief centrifugation and replaced with an equal volume of fresh buffer. Supernatants were read using a gamma counter (Packard). Cumulative release was calculated as a percent of encapsulated drug and was considered complete when the microspheres had completely degraded based on visual inspection. The IB was defined as drug released within the first 24 hours."}, "retina [7]": {"system": "retina", "parameters": "species or system Long-Evans rats", "settings": "rat, in vivo", "description": "(§2) All animal procedures were in accordance with protocols approved by the Institutional Animal Care and Use Committee at the Illinois Institute of Technology, and with the principles embodied in the statement on the use of animals in ophthalmic and vision research adopted by the Association for Research in Vision and Ophthalmology. Long-Evans male rats (1-3 months, 300-350 g) were purchased from Harlan Laboratories (Indianapolis, IN, USA). Animals were anesthetized using 80 mg/kg of ketamine hydrochloride (Fort Dodge Animal Health, Fort Dodge, Iowa, USA) and 10 mg/kg xylazine (AnaSed® Injection, Akorn, Inc., Decatur, IL, USA) via intraperitoneal (IP) injection. Proparacaine drops (Bausch and Lomb, Rochester, NY, USA) were used to anesthetize the corneas throughout the procedure and pupils were dilated using phenylephrine (Bausch and Lomb) and atropine drops (Bausch and Lomb). Heart rate and blood oxygen saturation were monitored with a PulseOximeter (8500AV; Nonin Medical Inc., Plymouth, MN, USA). Animals were placed on a custom-built heated stage and monitored to maintain a core body temperature of 37° C.\nAnimals were separated into six groups to determine the ability of the DDS of this invention to treat CNV. For analysis purposes, lesions were considered independent within each treatment group and each group contained two rats for a total of four eyes and up to 24 lesions per treatment group. […] All IVT injections were 5 μL and performed immediately after CNV induction.\nThe corneal electroretinogram (ERG) is a non-invasive measurement that represents the overall electrical activity of the retina in response to a stimulus flash. It is routinely used to assess retinal cellular activity and in toxicology studies. Each component of the ERG can be used to assess different retinal cell types and any alterations in the function of the retina due to the DDS would appear as changes in amplitude or sensitivity of various ERG components. Under scotopic conditions, the ERG has two important components: the a-wave and b-wave. The rising edge of the negative a-wave is generated by the photoreceptors in the outer retina; the positive b-wave is generated primarily by the bipolar cells and/or Müller cells. Another component of the ERG is the c-wave, which originates in the RPE and can be used to assess the functional integrity of the photoreceptors, the RPE cells, and the interactions between them; however, for the purposes of this research, the c-wave was not recorded or analyzed.\nUnder dim red light prior to and at each time point after CNV induction and DDS injection, ERG experiments were performed under scotopic conditions, with animals dark-adapted overnight prior to the experiment. Electroretinograms, in response to the full-field Ganzfeld stimulation, were recorded by a gold wire loop placed on the cornea. The reference and ground electrodes were 30 G platinum subdermal needle electrodes ([…]™ F-E2, Grass Products, Natus Neurology, Warwick, RI, USA) inserted into the cheek and nape of the neck, respectively. A-wave and b-wave intensity responses were recorded by presenting single flashes of increasing intensity (5×10^−4 to 305.7 sc cd·s·m^−2) and allowing the eye to dark adapt for 1 min after each flash. The intensity-response values for the a-wave and b-wave were fit with the Naka-Rushton equation, to determine a half-saturation intensity of the responses and maximal response.\nThe parameter values obtained from the Naka-Rushton analyses and IOP measurements were compared using the paired t-test verses control. […] Unless otherwise noted, significance represents p<0.05. All values are reported as sample mean±standard error of the mean."}, "laser-induced CNV": {"system": "laser-induced CNV", "experiment": "Laser-induced CNV rat model, lesion area from late-phase FA images (multi-Otsu thresholding)", "format": "in vivo, Long-Evans rats", "settings": "5 μL IVT immediately after CNV induction, Weeks 1-12", "description": "as §2, with “Proparacaine drops (Bausch and Lomb, Rochester, NY, USA) were used to anesthetize the corneas throughout the procedure and pupils were dilated using phenylephrine (Bausch and Lomb) and atropine drops (Bausch and Lomb).” left out, “C. […]” for “C.”\nA confocal scanning laser ophthalmoscope (cSLO) system (Heidelberg Retina Angiograph (HRA), Heidelberg Engineering, Heidelberg, Germany) was used to image the retina. FA still images were captured at 1-2 min, 10 min and 20 min after IP injection of 0.5 mL of 20% fluorescein dye (Sigma Aldrich, St. Louis, MO, USA) and were used for quantification of CNV lesion areas. […]\nCNV lesion areas were quantified using late-phase FA images. […]"}, "[8]": {"experiment": "In vitro single and dual release of DEX nanoparticles and AFL microspheres from hydrogel DDS (Example 3)", "format": "physicochemical", "settings": "first 14 days", "experimental": "The DDS for single release consisted of 20 mg of DEX nanoparticles (DEX-np) suspended within a biodegradable N-isopropylacrylamide/poly(ethylene glycol)-co-(L-lactic acid) diacrylate/(NIPAAm/PEG-PLLA-DA) thermoresponsive hydrogel. The dual release consisted of 20 mg of DEX-np and 20 mg of AFL microspheres (AFL-ms) suspended within the hydrogel. DEX release in vitro, with and without AFL-ms, was quantified using NanoDrop™ OneC. Iodine-125 radiolabeled AFL was used to measure encapsulation efficiency into the hydrogel and in vitro release. The initial burst was calculated by quantifying total drug release in the first 24 hours."}, "bovine retina": {"system": "bovine retina", "settings": "directly after exposure to 0.1 mg/mL; cited from earlier work"}, "retina [9]": {"system": "retina", "settings": "vitreal concentration 6.67-10 mg/mL, 24 hr or 7 days after treatment; cited from earlier work"}, "CNV": {"system": "CNV", "settings": "intravitreal, out to 28 days, doses above and below clinical dose; cited from earlier work"}, "[10]": {"system": "inflammation-induced angiogenesis in the cornea", "settings": "systemic or topical application; cited from earlier work"}, "mouse VEGF-A": {"system": "mouse VEGF-A", "sequence (Q00731 205-317 limits assumed)": "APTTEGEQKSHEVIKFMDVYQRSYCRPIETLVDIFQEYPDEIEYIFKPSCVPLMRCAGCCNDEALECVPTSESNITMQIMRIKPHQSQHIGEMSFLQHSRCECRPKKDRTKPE", "settings": "cited from earlier work"}, "[11]": {"system": "corneal neovascularization", "settings": "cited from earlier work"}, "[12]": {"settings": "in vivo; cited from earlier work"}, "[13]": {"settings": "cited from earlier work"}}, "note": "Values joined by “and” are separate entries in the source; they are usually repeats but may differ in a detail not shown here. Equal entries are not always repeated.", "data": [{"molecule": "CN[C@H](CC(C)C)C(=O)N[C@H]1C(=O)N[C@@H](CC(N)=O)C(=O)N[C@H]2C(=O)N[C@H]3C(=O)N[C@H](C(=O)N[C@H](C(=O)O)c4cc(O)cc(O)c4-c4cc3ccc4O)[C@H](O)c3ccc(c(Cl)c3)Oc3cc2cc(c3O[C@@H]2O[C@H](CO)[C@@H](O)[C@H](O)[C@H]2O[C@H]2C[C@](C)(N)[C@H](O)[C@H](C)O2)Oc2ccc(cc2Cl)[C@H]1O", "note": "[VAN, vancomycin]", "values": [{"measurement": "duration of controlled release", "setting": "[1]", "value": "over 20 days"}, {"measurement": "bioactivity", "setting": "[2]", "value": "bioactivity was maintained throughout the release"}, {"measurement": "treatment efficacy", "setting": "[3]", "value": "showed treatment efficacy"}]}, {"molecule": "aflibercept", "values": [{"measurement": "Diameter", "setting": "[4]", "value": "8.0 ± 0.3", "unit": "μm"}, {"measurement": "Encapsulation Efficiency Percent", "setting": "[5]; microspheres Alone", "value": "44.8 ± 2.0", "unit": "%"}, {"measurement": "Encapsulation Efficiency Percent", "setting": "[5]; microspheres in hydrogel", "value": "44.6 ± 1.4", "unit": "%"}, {"measurement": "rate of release from the DDS, times less than that of ranibizumab", "setting": "[6]; microsphere-hydrogel DDS", "value": 2.3, "unit": "×"}, {"measurement": "Initial Burst Percent", "setting": "[6]; microspheres Alone", "value": "83.3 ± 2.1", "unit": "%"}, {"measurement": "extension of release by hydrogel", "setting": "[6]", "value": 27.2, "unit": "%"}, {"measurement": "reduction of initial burst by hydrogel", "setting": "[6]", "value": 76, "unit": "%"}, {"measurement": "steady release rate", "setting": "[6]; microspheres in hydrogel", "value": 0.065, "unit": "µg/day"}, {"measurement": "Initial Burst Percent", "setting": "[6]; microspheres in hydrogel", "value": "20.1 ± 0.8", "unit": "%"}, {"measurement": "duration of release", "setting": "[6]", "value": "196 days and ~200 days"}, {"measurement": "encapsulated drug remaining entrapped in hydrogel after complete degradation of microspheres", "setting": "[6]; non-degradable hydrogel, end of release", "value": "32.7±1.1", "unit": "%"}, {"measurement": "a-wave half-saturation intensity versus control", "setting": "retina [7]", "value": "No significant difference"}, {"measurement": "half-maximal a- or b-wave response (half-saturation intensity)", "setting": "retina [7]", "value": "No significant difference"}, {"measurement": "maximal a-wave response post-treatment, lower than control", "setting": "retina [7]", "value": "~40", "unit": "%"}, {"measurement": "maximal a-wave response, Control versus Week 1-Week 12", "setting": "retina [7]", "value": "significant difference"}, {"measurement": "CNV lesion area compared to non-treated animals", "setting": "laser-induced CNV", "value": "significantly smaller CNV lesions compared to non-treated animals at Week 4 and Week 12"}, {"measurement": "release rates in the presence of DEX-np", "setting": "[8]", "value": "increased release rates"}, {"measurement": "decrease in maximal scotopic b-wave response", "setting": "bovine retina", "value": 43.1, "unit": "%"}, {"measurement": "ERG parameters", "setting": "retina [9]", "value": "did not alter any ERG parameters"}]}, {"molecule": "bevacizumab", "values": [{"measurement": "therapeutic effect on CNV", "setting": "CNV", "value": "no therapeutic effect was observed"}, {"measurement": "inhibition of corneal angiogenesis", "setting": "[10]", "value": "significantly inhibited inflammation-induced angiogenesis"}, {"measurement": "binding to mouse VEGF-A", "setting": "mouse VEGF-A", "value": "binds to mouse VEGF-A"}, {"measurement": "corneal angiogenesis", "setting": "[11]; sub-conjunctival injection", "value": "can significantly inhibit corneal angiogenesis"}, {"measurement": "corneal neovascularization", "setting": "[11]; topical", "value": "limited corneal neovascularization"}]}, {"molecule": "ranibizumab", "values": [{"measurement": "Diameter", "setting": "[4]", "value": "7.5 ± 0.4", "unit": "μm"}, {"measurement": "Encapsulation Efficiency Percent", "setting": "[5]; microspheres Alone", "value": "91.3 ± 2.5", "unit": "%"}, {"measurement": "Initial Burst Percent", "setting": "[6]; microspheres Alone", "value": "50.3 ± 2.1", "unit": "%"}, {"measurement": "extension of release by hydrogel", "setting": "[6]", "value": 27.2, "unit": "%"}, {"measurement": "reduction of initial burst by hydrogel", "setting": "[6]", "value": 58, "unit": "%"}, {"measurement": "steady release rate", "setting": "[6]; microspheres in hydrogel", "value": 0.153, "unit": "µg/day"}, {"measurement": "Initial Burst Percent", "setting": "[6]; microspheres in hydrogel", "value": "21.0 ± 2.0", "unit": "%"}, {"measurement": "duration of release", "setting": "[6]", "value": "196 days and ~200 days"}, {"measurement": "a-wave parameters (maximal response, half-saturation intensity) versus control", "setting": "retina [7]", "value": "no significant differences"}, {"measurement": "b-wave parameters versus control", "setting": "retina [7]", "value": "no significant differences"}, {"measurement": "CNV lesion area compared to non-treated animals", "setting": "laser-induced CNV", "value": "only had a significant decrease in lesion area at Week 12"}, {"measurement": "half-life t½", "setting": "[12]", "value": 220, "unit": "h"}, {"measurement": "therapeutic effect on CNV", "setting": "CNV", "value": "no therapeutic effect was observed"}]}, {"molecule": "ovalbumin (protein, UniProt P01012 2-386, looked up, model protein (45 kDa) used in initial development of the DDS) Ovalbumin: GSIGAASMEFCFDVFKELKVHHANENIFYCPIAIMSALAMVYLGAKDSTRTQINKVVRFDKLPGFGDSIEAQCGTSVNVHSSLRDILNQITKPNDVYSFSLASRLYAEERYPILPEYLQCVKELYRGGLEPINFQTAADQARELINSWVESQTNGIIRNVLQPSSVDSQTAMVLVNAIVFKGLWEKAFKDEDTQAMPFRVTEQESKPVQMMYQIGLFRVASMASEKMKILELPFASGTMSMLVLLPDEVSGLEQLESIINFEKLTEWTSSNVMEERKIKVYLPRMKMEEKYNLTSVLMAMGITDVFSSSANLSGISSAESLKISQAVHAAHAEINEAGREVVGSAEAGVDAASVSEEFRADHPFLFCIKHIATNAVLFFGRCVSP", "values": [{"measurement": "duration of controlled and extended release", "setting": "[13]; microsphere-hydrogel DDS", "value": "approximately 200 days"}, {"measurement": "extension of release compared to microspheres alone", "setting": "[13]; microspheres within hydrogel", "value": "~30", "unit": "%"}, {"measurement": "residual entrapment in hydrogel", "setting": "[13]; prior study", "value": "8.01±0.76", "unit": "%"}]}]}
